Data: the nanobody polyreactivity screen of Harvey et al. (2022)

Test: yeast display, Sf9 membrane polyspecificity reagent, FACS + sequencing; frameworks hold sequencing errors
Procedure, shortened: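 Polyreactivity labels are assigned by the sorting gate from which each nanobody was recovered. The gates were low and high (top ~1%), set on anti-HA fluorescence for expression and streptavidin fluorescence for reagent binding. Before sorting, galactose-induced (36–48 hours) yeast display cells were stained for 1 hour at 4 °C with 10% biotinylated, detergent-solubilized Sf9 membrane reagent.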

Row | Sequence | polyreactivity (PSR sort gate)
1 | QVQLVESGGGLVQAGGSLRLSCAASGRIFDLYTMGWYRQAPGKERELVAAIRWSDGSTYYADSVKGRFTISRDNAKNTVYLQMNSLKPEDTAVYYCARDADPNIGGYYYWGQGTQVTVSS | low polyreactivity
2 | QVQLVESGGGLVQAGGSLRLSCAASGRIFDPNAMGWYRQAPGKERELVAAISSRSGSTFYADSVKGRFTISRDNAKNTVYLQMNSLKPEDTAVYYCAAVYRFYKHNYWGQGTQVTVSS | high polyreactivity
3 | QVQLVESGGGLVQAGGSLRLSCAASGRIFDPYAMGWYRQAPGKERELVAAINIGGGTNYADSVKGRFTISRDNAKNTVYLQMNSLKPEDTAVYYCAAPVPAYQFYYRLKSFGRRYDHWGQGTQVTVSS | low polyreactivity
4 | QVQLVESGGGLVQAGGSLRLSCAASGRIFDQNAMGWYRQAPGKERELVAAITWSGGSTNYADSVKVRFTISRDNSKNTVYLLMNSLKTEDTAVYYCNKVSYGYSTYGYWGQGTQVTVSS | low polyreactivity
5 | QVQLVESGGGLVQAGGSLRLSCAASGRIFDRNAMGWYRQATGKERELVARIDPGDDTNYADSVKGRFTISRDNAKNTVYLLMNSLKPEDTAVYYCATDPDYVLYRTAYYEYDYWGHGTQVTVSS | low polyreactivity
6 | QVQLVESGGGLVQAGGSLRLSCAASGRIFDRNTMGWYRQAPGKEREFVAAISGSGGRTYYADSVKGRFTISRDNAKNTVYLQMNSLKPEDTAVYYCAAYYSRQYVGYGYWGQGTQVTVSS | high polyreactivity
7 | QVQLVESGGGLVQAGGSLRLSCAASGRIFDRYAMGWYREAPGKERELVAAISGSGGRTYYADSVKGRFTISRDNAKNTVYLQMNSLKPEDTAVYYCAVKFSLYGQGYPKGDYWGQGTQVTVSS | high polyreactivity
8 | QVQLVESGGGLVQAGGSLRLSCAASGRIFDRYVMGWYRQAPGKERELVAAISQSGGGTYYADSVKGRFTISRDNAKNTVYLQMNSLNPEDTAVYYCAARGTGYHGYGYWGQGSQVTVSS | high polyreactivity
9 | QVQLVESGGGLVQAGGSLRLSCAASGRIFDSNALGWYRQAPGKERELVAAISYDGGSTYYADSVKGRFTISRDNAKNTVYLQMNSLKPEDTAVYYCAADDGWYYYYGYDYWGQGTQVTVSS | low polyreactivity
10 | QVQLVESGGGLVQAGGSLRLSCAASGRIFDSYAMGWYRQAPGKERELVAVISNNDGTTYYADSVKGRFTISRDNAKKTFYLQMNSLKPEDTAVYYCAAEEPLFGYLWYVVTYAGFYDYWGQGTQVTVSS | low polyreactivity
11 | QVQLVESGGGLVQAGGSLRLSCAASGRIFDSYTMGWYRQAPGKERELVAAISRGGGSTYYADSVKGRFTISRDNAKNTVYLQMNSLKPEDTAVYYCAASSYLNSRFKFDYWGQGTQVTVSS | low polyreactivity
12 | QVQLVESGGGLVQAGGSLRLSCAASGRIFDTYAMGWYSQAPGKERELVASISIDGSTYYADSVKGRFTISRDNAKNTVYLQMNSLKPEDTAVYYCNADGRYYTVRFEYWGQGTQVTVSS | low polyreactivity
13 | QVQLVESGGGLVQAGGSLRLSCAASGRIFDVNAMGWYRQAPGKEREFVAAINSRGDSTYYADSVKGRFTISRDNAKNTVYLQMNSLKPEDTAVYYCNVRGYSYSYRFWRYDYWGQGTQVTVSS | high polyreactivity
14 | QVQLVESGGGLVQAGGSLRLSCAASGRIFDVYAMGWYRQAHGKERELVARISDGGGSTYYADSVKGRFTISRDNAKNTVYLQMNSLKPEDTAVYYCASGGDLRLDRRFAFVSRGDYWGQGTQVTVSS | low polyreactivity
15 | QVQLVESGGGLVQAGGSLRLSCAASGRIFDVYAMGWYRQAPGKERELVASISWSDGSTYYADSVKGRFTLSRDNAKNTVYLQMNSLKPEDTAVYYCNALTELGGRWDDYWGQGTQVTVSS | low polyreactivity
16 | QVQLVESGGGLVQAGGSLRLSCAASGRIFDVYAMGWYRQAPVKERELVAAITWRGGTTYYADSVKGRFTISRDNAKNTVYLQMHTLKPEDTAVYYCNADLVYYSKHQKYSYDYWGQGTQVTVSS | low polyreactivity
17 | QVQLVESGGGLVQAGGSLRLSCAASGRIFDVYEMGWYRQAPGKERELVAAMTWSGTSTYYADSVKGRFTISRDNAKNTVYLQMNSLKPEDTAVYYCNALSYGRYLNYRGGMDYWGQGTQVTVSS | high polyreactivity
18 | QVQLVESGGGLVQAGGSLRLSCAASGRIFDYAMGWYRQAPGKERELVAAINSAGSTNYADSVKGRFTISRDNAKNTVYLQMNSLKPEDTAVYYCNTDYGSSYNYWGQGTQVTVSS | high polyreactivity
19 | QVQLVESGGGLVQAGGSLRLSCAASGRIFDYNAMGWYRQAPGKERELVAAISVSGGSTYYADSVKGRFTISRDNAKNTVYLQMNSLKPEDTAVYYCNAGYILDSFRYDHWGHGTQVTVSS | low polyreactivity
20 | QVQLVESGGGLVQAGGSLRLSCAASGRIFDYNTMGWYRQAPGKERELVAAITGGTGSTYYADSVKGRFTISRDNAKNTVYLHMNSLKPEDTAVYYCAAGFHKRVTPEILYDFWGQGTQVTVSS | low polyreactivity
21 | QVQLVESGGGLVQAGGSLRLSCAASGRIFDYNTMGWYRQAPGKERELVAAITGGTGSTYYADSVKGRFTISRDNAKNTVYLQMNSLKPEDTAVYYCAAGFHKRVTPEILYDYWGQGTQVTVSS | low polyreactivity
22 | QVQLVESGGGLVQAGGSLRLSCAASGRIFDYYAMGWYRQAPGKERELVAAINSGGSTYYADSVKGRFTISRDNAKNTVYLQMNSLKPEDTAVYYCNALRKSLRGGDYWGQGTQVTVSS | high polyreactivity

Row | Sequence | polyreactivity (PSR sort gate)
23 | QVQLVESGGGLVQAGGSLRLSCAASGRIFDYYAMGWYRQAPGKERELVAAITSGGTTTYYADSVKGRFTNSRDNAKNTVYLQLNSLKPEDTAVYFCAKYPYHIYHTDGDYWGQGTQVTVSS | low polyreactivity
24 | QVQLVESGGGLVQAGGSLRLSCAASGRIFDYYAMGWYRQAPGKERELVAAITVRGGTTYYADSVKGRFTISRDNAKNTVDLQMNSLKPEDTAVYYCAASDRRRYYYWGQGTQVTVSS | high polyreactivity
25 | QVQLVESGGGLVQAGGSLRLSCAASGRIFDYYDLGWYRQAPRKERELVAAITSSGTSTYYADSVKGRFTISRDNAKNTVYLQMNSLKPEDTAVYYCNARSIRPWGENGYWGQGTQVTVSS | high polyreactivity
26 | QVQLVESGGGLVQAGGSLRLSCAASGRIFEDYAMGWYRQAPGKERELVAAISSGGSTYADSVKGRFTISRDNAKNTVYLQMNSLKPEDTAVYYCAAYYRRSTYYYWGQGTQVTVSS | high polyreactivity
27 | QVQLVESGGGLVQAGGSLRLSCAASGRIFEGYAMGWYRQAPGKEELVAAITSDASTYYADSVKGRFTISRDNAKNTVYLQMNSLNPEDTAVYYCNAYTRGLEYDYWGQGTQVTVSS | high polyreactivity
28 | QVQLVESGGGLVQAGGSLRLSCAASGRIFEHYAMGWYRQAPGKERELVAAITVSGGSTYYADSVKGRFTISRDNAKNTVYLQMNSLKPEDTAVYYCNADQRDYGSYVTKLDYWGQGTQVTVSS | low polyreactivity
29 | QVQLVESGGGLVQAGGSLRLSCAASGRIFEIYALGWYRQAPGKERELVAAISWRGVSTYYADSVKGRFTISRDNAKNTVYLQMKSLKPEDTAVYYCNKDVDYFWYVEYDYWGQGTQVTVSS | low polyreactivity
30 | QVQLVESGGGLVQAGGSLRLSCAASGRIFERYAMGWYRQAPGKERELVAAISVSGSGTYYADSVKGRFTISRDNAKNTVYLQMNSLKPEDTAVYYCAADASLLGLFQGYDYWGQGTQVTVSS | low polyreactivity
31 | QVQLVESGGGLVQAGGSLRLSCAASGRIFEWNAMGWYRQAPGKERELVAAISWSGGSTYYADSVKGRFTISRDNAKNTVYLQMNSLKPEDTAVYYCAALTYRWSARDYWGQGTQVTVSS | high polyreactivity
32 | QVQLVESGGGLVQAGGSLRLSCAASGRIFFANTMGWYRQATGKERELVAAISLSSGSRYYADSVKGRFTISRDNAKNTVYLQMNSLKPEDTAVYYCAARGYSHVASRLYYYWGQGTQVTVSS | high polyreactivity
33 | QVQLVESGGGLVQAGGSLRLSCAASGRIFFAYAMGWYRQAQGKEREFVAAISDNDGSTYYADSVKGRFTISRDNAKNTVYLQMNSLKPEDTAVYYCNADLGYVYDYCGQGTQVTVSS | low polyreactivity
34 | QVQLVESGGGLVQAGGSLRLSCAASGRIFFDYAMGWYRQAPGKERELVADISYNGGSTNYADSVKGRFTISRDNAKNTVYLQMNSLKPEDTAVYYCNRAFVPVYDLDYYWGQGTQVTVSS | low polyreactivity
35 | QVQLVESGGGLVQAGGSLRLSCAASGRIFFDYAMGWYRQAPGKERELVAVITSSGSSTYYADSVKGRFTISRDNAKNTVYLQMNSLKPEDTAVYYCNAARLYSGLWYGYDYWGQGTQVTVSS | high polyreactivity
36 | QVQLVESGGGLVQAGGSLRLSCAASGRIFFGYAMGWYRLAPGKERELVAAISYGGGRTYYADSVKGRFTISRDNAKNTVSLQMNSLKPEDTAVDYCNKRVTGGSWSPGHYRYNYWGQGSQVTVSS | high polyreactivity
37 | QVQLVESGGGLVQAGGSLRLSCAASGRIFFGYAMGWYRQAPGKERELVASISRGGSTNYADSVKGRFTISRDNAKNTVYLQMNSLKPEDTAVYYCAASRYLQRYGMYYWGQGTQVTVSS | high polyreactivity
38 | QVQLVESGGGLVQAGGSLRLSCAASGRIFFGYAMGWYRQAPGKERELVATITSGGSTYYADSVKGRFTISRDNAKNTVYLQMNSLKPEDTAVYYCASQLHWVFTSGWAYRGSYDYWGQGTQVTVSS | low polyreactivity
39 | QVQLVESGGGLVQAGGSLRLSCAASGRIFFLYAMGWYRQAPGKERELVASITRRGGSTYYADSVKGRFTISRDNAKNTVYLQMNSLKPEDTAVYYCAAELYRSNVYHYDYWGQGTQVTVSS | high polyreactivity
40 | QVQLVESGGGLVQAGGSLRLSCAASGRIFFPYDMGWYRQAPGKERELVAAITNSGGRTYYADSVKGRFTISRDNAKNTVYLQMNSLKPEDTAVYYCAARYGSGGDYWGQGTQVTVSS | low polyreactivity
41 | QVQLVESGGGLVQAGGSLRLSCAASGRIFFRYAMGWSRQAPGKEREFVATITWSGGRTHYADSVKGRFTISRDNAKNTVYLQMNSLKPEDTAVYYCAASYHRYAFDYWGQGTQVTGSS | high polyreactivity
42 | QVQLVESGGGLVQAGGSLRLSCAASGRIFFTNAMGWYRQAPGKERELVAAISKSGARTYYADSVKGRFTISRDNAKNTVYLQMNSLKPEDTAVYYCAADVSVSGYGYWGQGTQVTVSS | high polyreactivity
43 | QVQLVESGGGLVQAGGSLRLSCAASGRIFFTNAMGWYRQAPGKERELVATISSSDGSTYYADSVKGRFTISRDNAKNTVYLQMNSLNPEDTAVYYCAALYSFRGSRQYTYKYYYWGQGTQVTVSS | high polyreactivity
